Test results taken from the supplement of paper PMC9170038.

System: K4 kissing-loop RNA reporter
Assay: apparent KD of K4 kissing-loop reporter; higher = weaker reporter binding
Settings: Eterna round: R107
Description: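 RNA-MaP round R107: designed RNA switches with theophylline, tryptophan, arginine or FMN aptamers are transcribed on-chip within common flanks. They are titrated with a labelled K4 kissing-loop RNA reporter in RNA-MaP buffer (100 mM Tris pH 7.5, 80 mM KCl, 4 mM MgCl2), without ligand or with the indicated ligand. Median apparent KD per design.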

[1] = input ligand: theophylline 20 uM
[2] = input ligand: tryptophan 2.4 mM
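Also: bound reporter read as fluorescence of individual clusters on recovered sequencing chips by microscopy, with normalized cluster intensities fitted with a binding model.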

Sequence | apparent KD of K4 kissing-loop reporter (input ligand: FMN 200 uM) | apparent KD of K4 kissing-loop reporter (input ligand: arginine 13.2 mM) | apparent KD of K4 kissing-loop reporter (input ligand: none) | apparent KD of K4 kissing-loop reporter [1] | apparent KD of K4 kissing-loop reporter [2]
AGGAGUGAUGUUCCUACAUACACGGUCCGACGAGGACCGGUACGGCCGCCACUCGCGUCCCAGUGAUGUUGGGAUUUGGCGUACG [Exclusion Tryptophan A GF 17] | 162 nM | 155 nM | 155 nM | 171 nM | 154 nM
AGCGCUGCCUGAGGAUAUAGAGACGAGUGAUGUUCGUGGAUUGAUACCAGUGAUGUUGGUCUAUUUCUAGAAGGCAGGCGAUCGU [Exclusion FMN B GF 3] | 131 nM | 85.6 nM | 103 nM | 105 nM | 103 nM
UAAUAUCCGUCGGCCGCCACUCACUAGUGAUGUUAGAGGAGUGAUGUUCCACGAGUGAUGUUCGAGAGGACCGGGACGGACGAUG [7th] | 75.1 nM | 60 nM | 65.3 nM | 56.6 nM | 54.9 nM
UUUAACGAGUGAUGUUCGAAAAGUAAUAGUUAGGAUAUCGUUUUUUCGAGAAGGAACUUCGAAGUGAUACGAAAGUAUCGCUUCG [FMN A 1] | 180 nM | 359 nM | 287 nM | 351 nM | 181 nM
UGUGAUGUGUAGUGUUAUGUUUUGCGGGAUACCAGAGUCUUUUUAUUCCCUUGGCAGCUUGAGUGAUGUUUGAUGCUGUUCUUGU [cxxdmullin] | 453 nM | 349 nM | 439 nM | 410 nM | 352 nM
GGUAGCAUGGCGGCCGCCACUAUUACUGGAUCGGAAACGAUCCAGUAUUUAUGAGUGAUGUUCAUUAGGACCGGGCCAUGCUACC | 342 nM | 301 nM | 304 nM | 305 nM | 208 nM
CGCCACAACUGAAGGAGCGCGCCAGUGAUGUUGGACGGCUUCGUCAAGGAAACUGCACCGGUGCAGGUAGGUCGCAGUGCGUGGU [Eranarve] | 186 nM | 164 nM | 204 nM | 162 nM | 195 nM
AAAGUAUACUGAAGGAGCGAGUAGUGGAAACAUAAACUCAUUGCGAGUGAUGUUCGCAGUACUCAGGUAGGUCGCGGUAAUCGUA [Exclusion Arginine B Gf 12] | 499 nM | 498 nM | 934 nM | 554 nM | 558 nM
UGACUGGACUGAAGGAGCGCUGAACUCCUAGUGAUGUUAGGAAAACGAGACAAAGUCUCGCGGCAGGUAGGUCGCAGUCUAGUCU | 130 nM | 85.9 nM | 108 nM | 111 nM | 99.2 nM
GCUAAGGAGUGAUGUUCCAAGUGAUGUUAACGAGGACCGGUACGGCCGCCACUCGAUACGGCCGGAAAGUAAGAUAAACUACAGU [Same State - Tryptophan A (Freestyle 4)] | 77.5 nM | 59.8 nM | 77.1 nM | 75.8 nM | 64.7 nM
AGGGAACGCACGGAUACCAGACUCAUAGUGAUGUUGUGGGUAUAAAUUAGCGCAUACACAGUCCCUUGGCAGCCGCUGAAUGGCC [theeternabot_exclusion_KL_Theo_B_1] | 829 nM | 644 nM | 971 nM | 835 nM | 505 nM
AAGGACUGCCAGGGAACACACUCAUUAUGGGAGGAUAUGUUAGCUGACAGAAGGCCCAGUGAUGUUGGGCCGGCGGGCUGUCAGG [Diargean] | 244 nM | 202 nM | 218 nM | 237 nM | 177 nM
GCUAUCUGAGCCCAGUGAUGUUGAGUGCUGAAGGAUAUGCGAUAGAGCAGAAGGUCAAGAACAUUGUUCGAUUAUCAAAACAAGU [theeternabot_exclusion_KL_FMN_A_35] | 264 nM | 264 nM | 272 nM | 356 nM | 328 nM
GUGCGGUGGAGGCUACCGCUACUCUGAGAAGGAGCGCAGAUGACUGCAGGUAGGUCGCUUAGAGCUUGCAGUGAUGUUGCAAGUU [Teorzaqu] | 166 nM | 157 nM | 188 nM | 132 nM | 140 nM
GCAUCCAUGUGAGGAUAUCGAGACGAGUGAUGUUCGGGCACCAGACAGGGAGACCUGUCAAUGGCUUGAGAAGGCACAUGGAUGC | 231 nM | 196 nM | 249 nM | 199 nM | 217 nM
UAUUAAUUGUCAGGAUAUCGUAUUCGAGUGAUGUUCGUAUAUCGACGAUAGUCGAUAUUAUCUAUACGAGAAGGGACAUUAUUUA [JR_SSFMNB_Sub006] | 418 nM | 334 nM | 477 nM | 341 nM | 379 nM
AGACUACCAACACUGUCAAUAGACAGUGACUAGGAUAUGCUGAUAAGCAGAAGGAGUGAUGUUCCUAAUAGAAAGGUAGUCAAAU [FmnAX 17 #SwitchBubble #StaticStem #K4Early] | 294 nM | 237 nM | 252 nM | 222 nM | 219 nM
AUUUAAUUAACUGAUACCAGACUUUUUGUUUUGAUAAUUACUAGUGAUGUUAGUGUUUCUGUCCCUUGGCAGCAGUAUCUACUUA [JR_ExcTheophyB_Sub017] | 121 nM | 177 nM | 122 nM | 209 nM | 106 nM
GUCUGCUGUAUCGAUACCAGAAGUGGGCAGUGAUGUUGUUCGGGUACAUCGCGUCUCGAGUUCCCUUGGCAGCGAUUGUACGAAU [theeternabot_exclusion_KL_Theo_B_12] | 533 nM | 571 nM | 694 nM | 835 nM | 524 nM
UGGAGUUGACGAAAAGUCAACUCCUGAGAAGGAGCGGACGAAAGUCCAGGUAGGUCGCUCACUACCAGUGAUGUUGGUAAUUCAA [#OpenEnded 3] | 269 nM | 284 nM | 277 nM | 272 nM | 234 nM
AAUGGCGAGUGAUGUUCGCCCACCAAUGAUACCAGUGCCAUCGGACACCCUUGGCAGCAUACGGGCAGUGAUGUUGCUCUUGGAA [Exclusion Theophylline A GF 26] | 185 nM | 181 nM | 193 nM | 200 nM | 177 nM
GAUUAAUAAGAGGAUACCAGUACAAAUAAAGUACAUUAAUAGUAGAGUGAUGUUCUAAAGUACCCUUGGCAGCUUAGAGUAAGUU [ExTheophylB.A] | 119 nM | 207 nM | 174 nM | 226 nM | 94.4 nM

Sequence | apparent KD of K4 kissing-loop reporter (input ligand: FMN 200 uM) | apparent KD of K4 kissing-loop reporter (input ligand: arginine 13.2 mM) | apparent KD of K4 kissing-loop reporter (input ligand: none) | apparent KD of K4 kissing-loop reporter [1] | apparent KD of K4 kissing-loop reporter [2]
AGAGUUAUAUGAGGAUAUGGGAUAGUAAAUGAGUGAGUUAUAGUGUAGUUUGUUUAGUGAUGUUAUUUAGAAGGCGUGAGUGAUG [dgnnmullin] | 193 nM | 114 nM | 100 nM | 113 nM | 86.4 nM
UAGAAGAGAAGCGAUACCAGCGAAUGAAGAAGAUGAUGAAGCCAGUGAUGUUGGAAAGAACGCCCUUGGCAGCGCAAGAGAAGAU | 119 nM | 163 nM | 107 nM | 175 nM | 83.2 nM
CGCAGUGAUGUUGCUAUAUUUCUUGAUUAACGAGGACCGGUACGGCCGCCACUCGAUUUCUCUCUAAUCCACUAUGUUGUUUAGA [JR_SSTryptoA_Sub002] | 390 nM | 472 nM | 506 nM | 524 nM | 319 nM
AUGGGUUGUUGAAGGAGCGCCGCCAGUGAUGUUGGGAGUUAGAUACCAGUGAUGUUGGGCCGGCAGGUAGGUCGCGGCGAUUUAU [Exclusion Arginine B GF 19] | 347 nM | 170 nM | 484 nM | 332 nM | 344 nM
GGACGCCGGUCGGCCGCCACUCACAGCAGUGAUGUUCCUGAGAAUGUAGCGGAGUGAUGUUCCGAGAGGACCGGGACUGCAGUUU [Same State Tryptophan B GF 8] | 799 nM | 644 nM | 777 nM | 875 nM | 840 nM
CAUACGCAUGGAGGAUAUGAGAUUACUCAUGUCAUUUAAUAUUCUCAGUGAUGUUGAGAUUUAGGCUCAGAAGGCCAUGUGUAUG [Ex FMN B 17] | 355 nM | 514 nM | 630 nM | 534 nM | 525 nM
UGUGAUGUUGUGAUGUUUAGUGUUGUUGGGCAGGAUAUUGUAGAGGCGAGAAGGGCUUGUGUGAUGUAUGAGUGAUGUUUGUAGU [cffdmullin] | 177 nM | 89.6 nM | 127 nM | 142 nM | 119 nM
UUUGAAAUGUCUGAUACCAGAGAAAAUAUAUGUAGUGAUGUUAUAUACAAAUUUAAUAAGCUCCCUUGGCAGCAGUAUGAAUUUU [AstrosExc-TheB#14] | 593 nM | 717 nM | 796 nM | 748 nM | 582 nM
AAUCACCGAGCGGCCGCCACUGCACAAAGCGAGUUUAUAGACACGGUACUGGAGUGAUGUUCGAGCAGGACCGGGCUAACUAAGC [theeternabot_sameState_KL_Trp_B_12] | 871 nM | 610 nM | 1190 nM | 758 nM | 729 nM
UGGGCCGCCUGAGGAUAUAGAGACGAGUGAUGUUCGUGGAUCAGAGCCAGUGAUGUUGGGUUAUUUCUAGAAGGCGGGCGAACUU [Exclusion FMN B GF10] | 116 nM | 112 nM | 120 nM | 118 nM | 120 nM
GUAGCACUUGACAGUGAUGUUGUCAAGGGCAAGGAUAUCACCUCAGUGAGAAGGUGUCCUUGAUAACUGCUACGGGAAUAUCCCA [Omei KL FMN A Exc D v7] | 603 nM | 136 nM | 152 nM | 156 nM | 168 nM
GCAGUGAUGUUGCACGAGUAGGCUGGAGUACGAGGACCGGUACGGCCGCCACUCGUACGGAAGUCGCUAAUUUAUGGAAUGGUGA [#06 K4 Tryptophan A Same State] | 592 nM | 381 nM | 341 nM | 413 nM | 436 nM
AAUUCUUAUCUUAGUUGAUUUCUAAUUAAACGAGGACCGGUACGGCCGCCACUCGGUUAUGAGUGAUGUUCAUGGAAUUACAUAA [JR_SSTryptoA_Sub019] | 407 nM | 601 nM | 515 nM | 791 nM | 169 nM
AAUUCAGUGAUGUUGGAAGGCAGGCGGGAUACCAGCGGAGAAUAACGCCCUUGGCAGCCCAUAUAUCCCAAAUAGAUAAUAGUUC [Same State - Theophylline A (Freestyle 3)] | 386 nM | 317 nM | 410 nM | 405 nM | 376 nM
UUAAUAUUGUCGGCCGCCACUGGAUAGUAAUUUGUAUAAUCUAUUUCAAAGUGAUGUUUUGAGUCCAGGACCGGGACAUUUGAUA [JR_Nu_ExcTryptoB_Sub030] | 503 nM | 363 nM | 455 nM | 406 nM | 297 nM
GGAUGGUAGGCGGCCGCCACUAAAACUGAACACAUACAAGCCAGUGAUGUUGGUAUGAUGGAGUAUAGGACCGGGCCUAGAUAGA [Exclusion - Tryptophan B (Freestyle 4)] | 452 nM | 367 nM | 472 nM | 420 nM | 421 nM
GGAUAGGAUAGAGGAUAUGGUAUAUGCAAGAAUAACUUGUCAUGUAAAUCCAUGAGGAGUGAUGUUCCAGAAGGCUGUCCUAUCG [MatMod 10 - Jieux - Exclusion - FMN B] | 646 nM | 324 nM | 480 nM | 519 nM | 379 nM
CUCUUCUUUCUUUUAGUGAUGUUAAAUUAGCGAGGACCGGUACGGCCGCCACUCGUAUAGCUGGAAUGACUGUGCGAGGGUUUGU | 960 nM | 514 nM | 905 nM | 522 nM | 790 nM
CGAGUGAUGUUCGUUUUUUUAUUUUUUUGACAGGAUAUGCGGAAACGCAGAAGGGUCACCUUUGAGUUAAAAGAAUUUAAAUUAU [Ex FMN A 23] | 278 nM | 208 nM | 254 nM | 213 nM | 193 nM
AAAGAGUCCUGAGCCGAAGAAGAAGGCGGACGAGGACCGGUACGGCCGCCACUCGAAAGGAGUGCGGCUGAGUGAUGUUUGGCCG [Tryptophan A (C-G optomized)] | 342 nM | 181 nM | 284 nM | 281 nM | 268 nM
AGUACAAUGGCGGCCGCCACUCAACGCAGAUCAAAGAUCUGCGAUCACUCAGUGAUGUUGAGUGAGAGGACCGGGCCUUUGUACA [Omei KL Tryp B SS B v6] | 354 nM | 272 nM | 307 nM | 311 nM | 135 nM
